Key:
[1] = target: SARS-CoV-2 S ectodomain (residues 1-1214) with prefusion stabilizing 986P, 987P variants, C-terminal (SARS-CoV-2) (UniProt P0DTC2); assay: SEC
[2] = target: SARS-CoV-2 prefusion-stabilized spike protein ectodomain (aa 16-1208), expressed in Drosophila S2 cells (SARS-CoV-2) (UniProt P0DTC2); assay: SEC

| Substance | stoichiometry N [1] | stoichiometry N [2] |
| --- | --- | --- |
| SARS-CoV-2 S ectodomain (residues 1-1214) with prefusion stabilizing 986P, 987P variants, C-terminal (from UniProt P0DTC2 14-1214) (domain or fragment) | 3 | – |
| SARS-CoV-2 prefusion-stabilized spike protein ectodomain (aa 16-1208), expressed in Drosophila S2 cells (from UniProt P0DTC2 16-1208) (domain or fragment) | – | 2 |
